According to paper PMC8864007, “Evaluation of an ^131I-labeled HER2-specific single domain antibody fragment for the radiopharmaceutical therapy of HER2-expressing cancers” (Scientific Reports, 2022):
Several values for one entry are separate records, joined by “and”; a condition that tells them apart may be missing. Equal entries are not always repeated. Blank lines part the entries; values can stand above or below the binder they belong to.

Assays:
[1] = target: T1, murine HER2 (Mus musculus, UniProt P70424); test: ELISA; affinity, specificity and species cross-reactivity by ELISA; details in Supplementary Materials
T1 construct: murine HER2

[2] = target: T2, HER2-Fc protein (Homo sapiens, UniProt P04626); test: SPR; Biacore 3000 System; binding to HER2-Fc protein; which partner was immobilised is not stated; settings: both partners purified
T2 construct: human epidermal growth factor receptor type 2 (HER2), fused to Fc; Probably the extracellular domain of HER2; The source may stand in Supplementary Methods

[3] = target: T3, human epidermal growth factor receptor type 2 (HER2) on HER2-expressing carcinoma cells (Homo sapiens, endogenous on SKOV-3 cells, UniProt P04626); test: radioligand binding; cell-based affinity assay on HER2-expressing SKOV-3 cells; nonspecific binding measured with a 100-fold molar excess of trastuzumab; three therapy-level batches; settings: one partner purified
T3 construct: human epidermal growth factor receptor type 2 (HER2), endogenous on SKOV-3 and BT474 cells; The assay tells which cell line was used; also called HER2 receptor; source: endogenous, on SKOV-3 human ovarian carcinoma cells and on BT474 human breast carcinoma cells

T1 sequence (P70424 23-1256): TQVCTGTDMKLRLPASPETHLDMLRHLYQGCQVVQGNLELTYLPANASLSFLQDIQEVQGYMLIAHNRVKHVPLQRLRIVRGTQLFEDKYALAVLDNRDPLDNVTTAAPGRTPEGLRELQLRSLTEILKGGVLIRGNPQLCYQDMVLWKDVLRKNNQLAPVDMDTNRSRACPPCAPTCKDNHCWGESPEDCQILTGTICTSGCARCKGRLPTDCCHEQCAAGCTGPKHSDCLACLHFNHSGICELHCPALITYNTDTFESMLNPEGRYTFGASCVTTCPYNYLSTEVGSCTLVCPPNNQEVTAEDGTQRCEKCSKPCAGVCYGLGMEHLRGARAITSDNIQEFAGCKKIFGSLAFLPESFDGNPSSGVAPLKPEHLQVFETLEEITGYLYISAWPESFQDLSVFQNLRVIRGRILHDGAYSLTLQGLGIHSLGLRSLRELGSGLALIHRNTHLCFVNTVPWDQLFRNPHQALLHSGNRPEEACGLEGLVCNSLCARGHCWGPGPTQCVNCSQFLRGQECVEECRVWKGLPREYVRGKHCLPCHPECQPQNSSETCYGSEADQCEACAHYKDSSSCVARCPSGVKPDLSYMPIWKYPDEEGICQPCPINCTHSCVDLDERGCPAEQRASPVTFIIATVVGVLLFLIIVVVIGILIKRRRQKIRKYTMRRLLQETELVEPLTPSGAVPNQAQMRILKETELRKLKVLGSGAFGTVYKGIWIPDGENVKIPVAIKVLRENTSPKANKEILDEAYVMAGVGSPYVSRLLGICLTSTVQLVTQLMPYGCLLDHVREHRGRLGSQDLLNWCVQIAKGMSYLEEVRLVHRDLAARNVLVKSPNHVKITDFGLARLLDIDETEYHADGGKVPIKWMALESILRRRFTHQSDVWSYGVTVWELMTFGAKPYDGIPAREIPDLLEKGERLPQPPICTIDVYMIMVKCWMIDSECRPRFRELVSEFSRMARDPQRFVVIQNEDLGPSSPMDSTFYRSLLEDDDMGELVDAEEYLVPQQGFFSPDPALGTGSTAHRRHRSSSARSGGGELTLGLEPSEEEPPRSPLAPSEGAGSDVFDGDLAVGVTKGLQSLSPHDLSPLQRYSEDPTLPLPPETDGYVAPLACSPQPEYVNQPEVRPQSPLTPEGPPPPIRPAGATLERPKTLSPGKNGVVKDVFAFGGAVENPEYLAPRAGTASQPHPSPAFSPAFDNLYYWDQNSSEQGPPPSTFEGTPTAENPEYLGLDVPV

binding result [1]: no binding
Kd [2]: 0.21 nM
B1: VHH_1028 (VHH)
VHH: EVQLVESGGGLVQAGGSLRLSCAASGITFSINTMGWYRQAPGKQRELVALISSIGDTYYADSVRGRFTISRDNAKNTVYLQMNSLKPEDTAVYYCKRFRTAAQGTDYWGQGTQVTVSS
notes: Measured mass 12,844.0 Da (theoretical 12,844.2 Da); Engineered to have no lysine in its CDR regions; also called anti-HER2 VHH_1028; sdAb VHH_1028; source: developed and provided by Cereius, Inc; production and purification in Supplementary Materials

Kd [2]: 0.21 nM
B2: iso-SGMIB-VHH_1028 (VHH)
VHH: B1 VHH
notes: as the chain of m1; Measured mass 13,147.6 Da (calculated 13,146.4 Da); also called unlabeled iso-SGMIB-VHH_1028; 1:1 iso-SGMIB-VHH_1028 conjugate; source: VHH_1028 reacted with iso-SGMIB, 1:1 conjugate isolated by HIC-HPLC

Kd [3]: 1.5 nM and 2.9 nM and 2.6 nM
B3: iso-[^131I]SGMIB-VHH_1028 (VHH)
VHH: B1 VHH
notes: as the chain of m1; source: VHH_1028 conjugated with iso-[^131I]SGMIB, isolated by gel filtration (PD-10)
